Laboratory results published in patent publication US20140274782A1, “AFFINITY REAGENTS AND METHODS FOR DETECTION, PURIFICATION, AND PROTEOMIC ANALYSIS OF METHYLATED PROTEINS” (The Board of Trustees of the Leland Stanford Junior …, priority 2013, published 2014).
Each block holds one molecule with its values, some of them ahead of it.

Columns and labels:
G9a and GLP = biological target: T1, G9a and GLP (Homo sapiens, UniProt Q96KQ7+Q9H9B1); assay: Triple SILAC pull-down after UNC0638 treatment of 293T cells, DMSO/UNC0638 ratio of protein captured by 3×MBT; type: cell-based; set-up: cells were treated for 24 hours with UNC0638 at 2.5 μM or DMSO vehicle control; endogenous in cells; host or cells: HEK 293T; conditions: for Protein Ratios DMSO/UNC0638: SILAC ratio of protein captured by 3xMBT, 293T cells treated 24 hours with UNC0638 at 2.5 μM or DMSO; for Relative to UNC0638 UNC Heavy / Relative to UNC0638 UNC Light: SILAC ratio DMSO/UNC0638 of protein pulled down with 3xMBT; for Relative to UNC0638 UNC Heavy: UNC0638 in heavy SILAC media; for Relative to UNC0638 UNC Light: UNC0638 in light SILAC media; for Relative to UNC0638 Average: average of UNC Light and UNC Heavy experiments;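 on all read-outs here: mass spectrometry (Q-Exactive) SILAC quantitation, DMSO/UNC0638 ratio computed after subtracting 3×MBTD355N mutant pull-down background, only proteins with at least twofold 3×MBT over mutant signal considered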
T1 sequence (Q96KQ7 2-1210 limits assumed): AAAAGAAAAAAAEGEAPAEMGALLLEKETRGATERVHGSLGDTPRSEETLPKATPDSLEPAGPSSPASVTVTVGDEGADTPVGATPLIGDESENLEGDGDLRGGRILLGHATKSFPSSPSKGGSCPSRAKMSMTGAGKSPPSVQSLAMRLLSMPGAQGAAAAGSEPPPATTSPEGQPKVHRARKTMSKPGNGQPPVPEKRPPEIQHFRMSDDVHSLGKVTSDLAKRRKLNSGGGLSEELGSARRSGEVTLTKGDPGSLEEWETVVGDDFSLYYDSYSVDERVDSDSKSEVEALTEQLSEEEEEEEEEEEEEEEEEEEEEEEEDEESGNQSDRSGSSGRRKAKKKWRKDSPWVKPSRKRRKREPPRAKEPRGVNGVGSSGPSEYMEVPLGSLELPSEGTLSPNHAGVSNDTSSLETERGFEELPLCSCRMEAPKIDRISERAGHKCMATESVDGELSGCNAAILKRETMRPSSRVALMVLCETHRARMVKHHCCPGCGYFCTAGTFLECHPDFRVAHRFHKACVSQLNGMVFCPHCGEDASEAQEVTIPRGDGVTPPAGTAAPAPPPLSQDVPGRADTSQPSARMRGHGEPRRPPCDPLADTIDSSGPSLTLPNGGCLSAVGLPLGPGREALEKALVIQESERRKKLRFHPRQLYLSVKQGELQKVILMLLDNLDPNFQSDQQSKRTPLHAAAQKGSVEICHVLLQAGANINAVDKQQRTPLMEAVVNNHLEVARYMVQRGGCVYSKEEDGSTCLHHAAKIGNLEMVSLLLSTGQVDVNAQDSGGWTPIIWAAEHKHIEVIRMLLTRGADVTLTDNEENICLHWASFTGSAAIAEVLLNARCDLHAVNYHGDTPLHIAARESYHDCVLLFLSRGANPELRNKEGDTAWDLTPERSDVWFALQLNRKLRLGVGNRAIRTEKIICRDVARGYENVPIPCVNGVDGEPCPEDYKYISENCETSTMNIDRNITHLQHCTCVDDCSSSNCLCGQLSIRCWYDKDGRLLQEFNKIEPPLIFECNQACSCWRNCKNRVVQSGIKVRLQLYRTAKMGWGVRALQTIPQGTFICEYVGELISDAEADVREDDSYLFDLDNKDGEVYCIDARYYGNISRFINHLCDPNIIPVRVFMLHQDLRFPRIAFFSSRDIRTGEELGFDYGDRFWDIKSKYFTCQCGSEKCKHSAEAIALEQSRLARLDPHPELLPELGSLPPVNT
T1 sequence (Q9H9B1 2-1298 limits assumed): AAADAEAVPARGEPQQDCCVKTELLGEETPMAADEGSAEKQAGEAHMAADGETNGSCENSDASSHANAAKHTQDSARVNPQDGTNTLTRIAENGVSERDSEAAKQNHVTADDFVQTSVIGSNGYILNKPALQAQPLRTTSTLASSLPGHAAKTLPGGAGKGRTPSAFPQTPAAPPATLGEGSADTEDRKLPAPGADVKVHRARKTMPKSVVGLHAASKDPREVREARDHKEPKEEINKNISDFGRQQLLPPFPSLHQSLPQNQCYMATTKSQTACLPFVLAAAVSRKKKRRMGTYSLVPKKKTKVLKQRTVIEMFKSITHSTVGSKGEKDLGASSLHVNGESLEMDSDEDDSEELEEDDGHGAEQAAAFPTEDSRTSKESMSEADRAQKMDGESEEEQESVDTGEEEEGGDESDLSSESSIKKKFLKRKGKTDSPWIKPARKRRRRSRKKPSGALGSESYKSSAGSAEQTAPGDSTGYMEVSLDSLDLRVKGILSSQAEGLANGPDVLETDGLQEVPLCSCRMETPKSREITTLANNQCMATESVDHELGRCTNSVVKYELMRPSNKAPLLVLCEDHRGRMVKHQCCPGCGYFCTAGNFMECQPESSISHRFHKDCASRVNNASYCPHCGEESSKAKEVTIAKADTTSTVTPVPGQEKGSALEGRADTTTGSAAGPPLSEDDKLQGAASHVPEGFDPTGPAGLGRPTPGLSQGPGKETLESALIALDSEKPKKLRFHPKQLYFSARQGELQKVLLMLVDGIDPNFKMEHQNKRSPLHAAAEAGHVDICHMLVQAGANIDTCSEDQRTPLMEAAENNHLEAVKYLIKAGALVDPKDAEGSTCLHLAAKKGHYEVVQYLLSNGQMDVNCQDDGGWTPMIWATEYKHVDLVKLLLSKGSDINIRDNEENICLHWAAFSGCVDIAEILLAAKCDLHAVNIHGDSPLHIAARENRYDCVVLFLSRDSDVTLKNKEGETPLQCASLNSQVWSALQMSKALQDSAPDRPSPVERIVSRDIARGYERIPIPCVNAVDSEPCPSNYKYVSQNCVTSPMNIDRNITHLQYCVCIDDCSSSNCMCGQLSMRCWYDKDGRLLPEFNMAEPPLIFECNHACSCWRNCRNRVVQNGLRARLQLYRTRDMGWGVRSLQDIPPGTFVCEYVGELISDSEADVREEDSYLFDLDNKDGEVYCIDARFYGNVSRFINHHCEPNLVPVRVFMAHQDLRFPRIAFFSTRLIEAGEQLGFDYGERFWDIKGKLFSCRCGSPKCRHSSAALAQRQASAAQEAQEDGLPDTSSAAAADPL

3×MBT domain of L3MBTL1 = assay: Triple SILAC pull-down, 3xMBT/3xMBTD355N ratio (cytoplasmic, nuclear and chromatin fractions of 293T cells); type: binding, human; conditions: SILAC ratio; for Protein Ratios 3xMBT/D355N: pull-down by 3xMBT vs 3xMBTD355N, 293T cells; for 3xMBT/D355N UNC Heavy / 3xMBT/D355N UNC Light: pull-down 3xMBT vs 3xMBTD355N; for 3xMBT/D355N UNC Heavy: experiment with UNC0638 in heavy SILAC media; for 3xMBT/D355N UNC Light: experiment with UNC0638 in light SILAC media;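 on all read-outs here: proteins quantified with MaxQuant, requiring at least two unique peptides and quantification in both label directions, normalized to the mean of proteins from a digested loading control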

Protein Ratios DMSO/UNC0638 (G9a and GLP): 1.3
B2: WD repeat-containing protein 70 (protein, UniProt Q9NW82 1-654, looked up)
WD repeat-containing protein …: MERSGPSEVTGSDASGPDPQLAVTMGFTGFGKKARTFDLEAMFEQTRRTAVERSRKTLEAREKEEEMNREKELRRQNEDIEPTSSRSNVVRDCSKSSSRDTSSSESEQSSDSSDDELIGPPLPPKMVGKPVNFMEEDILGPLPPPLNEEEEEAEEEEEEEEEEENPVHKIPDSHEITLKHGTKTVSALGLDPSGARLVTGGYDYDVKFWDFAGMDASFKAFRSLQPCECHQIKSLQYSNTGDMILVVSGSSQAKVIDRDGFEVMECIKGDQYIVDMANTKGHTAMLHTGSWHPKIKGEFMTCSNDATVRTWEVENPKKQKSVFKPRTMQGKKVIPTTCTYSRDGNLIAAACQNGSIQIWDRNLTVHPKFHYKQAHDSGTDTSCVTFSYDGNVLASRGGDDSLKLWDIRQFNKPLFSASGLPTMFPMTDCCFSPDDKLIVTGTSIQRGCGSGKLVFFERRTFQRVYEIDITDASVVRCLWHPKLNQIMVGTGNGLAKVYYDPNKSQRGAKLCVVKTQRKAKQAETLTQDYIITPHALPMFREPRQRSTRKQLEKDRLDPLKSHKPEPPVAGPGRGGRVGTHGGTLSSYIVKNIALDKTDDSNPREAILRHAKAAEDSPYWVSPAYSKTQPKTMFAQVESDDEEAKNEPEWKKRKI
Protein Ratios 3xMBT/D355N (3×MBT domain of L3MBTL1): 5.9

Relative to UNC0638 UNC Heavy (G9a and GLP): 0.32 log base 2 | Relative to UNC0638 UNC Light (G9a and GLP): 0.12 log base 2 | Relative to UNC0638 Average (G9a and GLP): 0.22 log base 2
B4: ZC3H11A (protein, UniProt O75152 1-810, looked up)
Zinc finger CCCH …: MPNQGEDCYFFFYSTCTKGDSCPFRHCEAAIGNETVCTLWQEGRCFRQVCRFRHMEIDKKRSEIPCYWENQPTGCQKLNCAFHHNRGRYVDGLFLPPSKTVLPTVPESPEEEVKASQLSVQQNKLSVQSNPSPQLRSVMKVESSENVPSPTHPPVVINAADDDEDDDDQFSEEGDETKTPTLQPTPEVHNGLRVTSVRKPAVNIKQGECLNFGIKTLEEIKSKKMKEKSKKQGEGSSGVSSLLLHPEPVPGPEKENVRTVVRTVTLSTKQGEEPLVRLSLTERLGKRKFSAGGDSDPPLKRSLAQRLGKKVEAPETNIDKTPKKAQVSKSLKERLGMSADPDNEDATDKVNKVGEIHVKTLEEILLERASQKRGELQTKLKTEGPSKTDDSTSGARSSSTIRIKTFSEVLAEKKHRQQEAERQKSKKDTTCIKLKIDSEIKKTVVLPPIVASRGQSEEPAGKTKSMQEVHIKTLEEIKLEKALRVQQSSESSTSSPSQHEATPGARRLLRITKRTGMKEEKNLQEGNEVDSQSSIRTEAKEASGETTGVDITKIQVKRCETMREKHMQKQQEREKSVLTPLRGDVASCNTQVAEKPVLTAVPGITRHLTKRLPTKSSQKVEVETSGIGDSLLNVKCAAQTLEKRGKAKPKVNVKPSVVKVVSSPKLAPKRKAVEMHAAVIAAVKPLSSSSVLQEPPAKKAAVAVVPLVSEDKSVTVPEAENPRDSLVLPPTQSSSDSSPPEVSGPSSSQMSMKTRRLSSASTGKPPLSVEDDFEKLIWEISGGKLEAEIDLDPGKDEDDLLLELSEMIDS
3xMBT/D355N UNC Heavy (3×MBT domain of L3MBTL1): 2.23 log base 2 | 3xMBT/D355N UNC Light (3×MBT domain of L3MBTL1): 2.81 log base 2

More lines, now with the values behind:

B1: Heterogeneous nuclear ribonucleoprotein L (protein, UniProt P14866 1-589, looked up)
Heterogeneous nuclear …: MSRRLLPRAEKRRRRLEQRQQPDEQRRRSGAMVKMAAAGGGGGGGRYYGGGSEGGRAPKRLKTDNAGDQHGGGGGGGGGAGAAGGGGGGENYDDPHKTPASPVVHIRGLIDGVVEADLVEALQEFGPISYVVVMPKKRQALVEFEDVLGACNAVNYAADNQIYIAGHPAFVNYSTSQKISRPGDSDDSRSVNSVLLFTILNPIYSITTDVLYTICNPCGPVQRIVIFRKNGVQAMVEFDSVQSAQRAKASLNGADIYSGCCTLKIEYAKPTRLNVFKNDQDTWDYTNPNLSGQGDPGSNPNKRQRQPPLLGDHPAEYGGPHGGYHSHYHDEGYGPPPPHYEGRRMGPPVGGHRRGPSRYGPQYGHPPPPPPPPEYGPHADSPVLMVYGLDQSKMNCDRVFNVFCLYGNVEKVKFMKSKPGAAMVEMADGYAVDRAITHLNNNFMFGQKLNVCVSKQPAIMPGQSYGLEDGSCSYKDFSESRNNRFSTPEQAAKNRIQHPSNVLHFFNAPLEVTEENFFEICDELGVKRPSSVKVFSGKSERSSSGLLEWESKSDALETLGFLNHYQMKNPNGPYPYTLKLCFSTAQHAS
Protein Ratios DMSO/UNC0638 (G9a and GLP): 1.3 | Protein Ratios 3xMBT/D355N (3×MBT domain of L3MBTL1): 2.4

B3: PEF1 (protein, UniProt Q9UBV8 1-284, looked up)
Peflin: MASYPYRQGCPGAAGQAPGAPPGSYYPGPPNSGGQYGSGLPPGGGYGGPAPGGPYGPPAGGGPYGHPNPGMFPSGTPGGPYGGAAPGGPYGQPPPSSYGAQQPGLYGQGGAPPNVDPEAYSWFQSVDSDHSGYISMKELKQALVNCNWSSFNDETCLMMINMFDKTKSGRIDVYGFSALWKFIQQWKNLFQQYDRDRSGSISYTELQQALSQMGYNLSPQFTQLLVSRYCPRSANPAMQLDRFIQVCTQLQVLTEAFREKDTAVQGNIRLSFEDFVTMTASRML
Relative to UNC0638 UNC Heavy (G9a and GLP): 0.30 log base 2 | Relative to UNC0638 UNC Light (G9a and GLP): 0.17 log base 2 | Relative to UNC0638 Average (G9a and GLP): 0.24 log base 2 | 3xMBT/D355N UNC Heavy (3×MBT domain of L3MBTL1): 1.48 log base 2 | 3xMBT/D355N UNC Light (3×MBT domain of L3MBTL1): 1.78 log base 2
